Laboratory results taken from PMC2192344.
Read-outs that look alike come from different tables or passages of the source.

Columns and labels:
His6-Elf-1 [1] = biological target: T1, His6-Elf-1 (human, UniProt P32519 1-619); experiment: EMSA
His6-Elf-1 [2] = biological target: T1, His6-Elf-1; experiment: EMSA; remark: listed apart in the source

T1 sequence (P32519 whole entry): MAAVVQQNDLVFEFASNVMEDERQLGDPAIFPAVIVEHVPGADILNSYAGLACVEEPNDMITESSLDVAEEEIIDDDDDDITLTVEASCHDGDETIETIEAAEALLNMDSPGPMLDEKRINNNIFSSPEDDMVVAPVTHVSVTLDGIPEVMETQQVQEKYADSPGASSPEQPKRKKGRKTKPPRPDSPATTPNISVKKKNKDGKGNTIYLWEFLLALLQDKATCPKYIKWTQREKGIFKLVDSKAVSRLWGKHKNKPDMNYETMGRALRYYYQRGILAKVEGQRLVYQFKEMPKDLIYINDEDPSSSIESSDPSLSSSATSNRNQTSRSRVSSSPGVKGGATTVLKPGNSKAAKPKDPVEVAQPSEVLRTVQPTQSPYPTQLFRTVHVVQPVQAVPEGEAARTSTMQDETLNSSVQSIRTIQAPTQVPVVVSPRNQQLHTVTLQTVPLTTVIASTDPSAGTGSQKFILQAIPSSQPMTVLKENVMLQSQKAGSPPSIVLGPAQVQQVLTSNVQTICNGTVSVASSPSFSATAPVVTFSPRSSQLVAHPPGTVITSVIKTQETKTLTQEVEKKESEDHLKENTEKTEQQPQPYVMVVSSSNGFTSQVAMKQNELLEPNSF

B1: m2 -97/-84 (dsDNA)
DNA 1: AAATACCGGAAGTG
DNA 2: CACTTCCGGTATTT
B1: binds (His6-Elf-1 [1]).

B2: m3 -97/-84 (dsDNA)
DNA 1: AAATATCGGAAGTG
DNA 2: CACTTCCGATATTT
B2: no binding (His6-Elf-1 [2]).
